The assay addresses E. coli RNAP σ^70 (E. coli, UniProt P00579 1-613).

Chain of E. coli RNAP σ^70 (P00579 whole entry): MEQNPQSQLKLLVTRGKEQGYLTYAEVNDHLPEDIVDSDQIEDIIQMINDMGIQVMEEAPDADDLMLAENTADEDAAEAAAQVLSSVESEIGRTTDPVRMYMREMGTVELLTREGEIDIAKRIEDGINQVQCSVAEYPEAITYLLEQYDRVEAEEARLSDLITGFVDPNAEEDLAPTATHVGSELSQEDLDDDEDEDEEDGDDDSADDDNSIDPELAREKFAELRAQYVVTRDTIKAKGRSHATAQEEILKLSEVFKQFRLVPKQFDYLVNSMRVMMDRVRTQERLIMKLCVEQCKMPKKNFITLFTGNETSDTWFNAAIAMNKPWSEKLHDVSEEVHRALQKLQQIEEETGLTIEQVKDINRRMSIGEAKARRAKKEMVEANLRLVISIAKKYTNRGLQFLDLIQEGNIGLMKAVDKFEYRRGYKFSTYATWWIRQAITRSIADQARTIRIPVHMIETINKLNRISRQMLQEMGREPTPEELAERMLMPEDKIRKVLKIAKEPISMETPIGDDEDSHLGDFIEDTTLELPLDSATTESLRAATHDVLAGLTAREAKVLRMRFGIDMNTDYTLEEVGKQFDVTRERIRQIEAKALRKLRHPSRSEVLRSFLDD

B1: E. coli stringent starvation protein A (EcSspA) (natural protein, UniProt P0ACA3 1-212, looked up)
chain: MAVAANKRSVMTLFSGPTDIYSHQVRIVLAEKGVSFEIEHVEKDNPPQDLIDLNPNQSVPTLVDRELTLWESRIIMEYLDERFPHPPLMPVYPVARGESRLYMHRIEKDWYTLMNTIINGSASEADAARKQLREELLAIAPVFGQKPYFLSDEFSLVDCYLAPLLWRLPQLGIEFSGPGAKELKGYMTRVFERDSFLASLTEAEREMRLGRS
Regarding B1, the binding result is “binds”.

(Values after publication PMC7959165 (Molecular cell, 2020).)
